{
  "source": "the nanobody polyreactivity screen of Harvey et al. (2022)",
  "data": [
    {"test": "yeast display, Sf9 membrane polyspecificity reagent, FACS + sequencing; frameworks hold sequencing errors", "method_in_brief": "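Synthetic nanobody libraries on Saccharomyces cerevisiae BJ5465 were galactose-induced for 36–48 hours, stained 1 hour at 4 °C with 10% biotinylated, detergent-solubilized Sf9 membrane reagent and enriched on streptavidin microbeads. FACS then separated cells into low and high (top ~1%) gates by anti-HA (expression) and streptavidin (reagent binding) fluorescence. Genes were colony-PCR amplified, MiSeq 2 × 250 sequenced and CDR-length filtered. A clone's polyreactivity label is that of its gate of origin.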", "values": [
      {"sequence": "QVQLVESGVGLVQAGGSLRLTCAASGRIFDYYAMGWSRQAPGKETELVARISRGATTNYADSVKGRFTISRDNAKNTVYLQINSLKPEDTAVYSCNARQYLAYVSWKGMGFWGQGTQVTVSS", "polyreactivity (PSR sort gate)": "high polyreactivity"},
      {"sequence": "QVQLVESGVGLVQAGGSLSLICAASGRIFWPNAMGSYRQAPGKERELVAAISRGGNTNYADSVKGRFTISRDNAKNTVYLQMNSLKPEDTAVYYCAARNFALGYRFDYWGQGTQVTVSS", "polyreactivity (PSR sort gate)": "high polyreactivity"},
      {"sequence": "QVQLVESGVGLVQAGGSLSLSCAASGFTISLNTMGWYRQAPGKERELVAAITYSGTRTYYADSVKGRFTISRDNAKNTVDLQMNRLKPEDTAVYYCAARHGQSWQWLEYDYWGQGTQVTVSS", "polyreactivity (PSR sort gate)": "low polyreactivity"},
      {"sequence": "QVQLVESGVGLVQAGGSLSLSCAASGRIFTYNALGWYRQAPGKERELVAAISALGGITYYADSVKGRFTISRDNAKITVYLQMNSLKPEDTAVYYCNKRYSSWSGVHDYWGQGTQVTVSS", "polyreactivity (PSR sort gate)": "high polyreactivity"},
      {"sequence": "QVQLVESGVGLVQAGGSVRLSCAASGRTFTRYAMGWYRQAPGKEREWVAAITWSGGSTYYADSVKGRFTISRDNAKNTVYLQMNSLKPEDTAVYYCNAQRYGLFGSEHGYWGQGTQVTVSS", "polyreactivity (PSR sort gate)": "high polyreactivity"},
      {"sequence": "QVQLVESGVGLVQAGGSVRLSCAASGRTFYRYAMGWYRQAPGKERELVAAISSGGSTYYADSVKGRFTISRDNAKNTVYLQMNSLKPEDTAVYYCNADYGRRNHMDYWGQGTQVTVSS", "polyreactivity (PSR sort gate)": "low polyreactivity"},
      {"sequence": "QVQLVESGVGLVQAGVSLRLSCAASVSISTPYTMGWSRPAPGKERELVAAISWIGDTTSYADSVKGRFTISRDNAKNTVYLQMNRLKPEDTAVYYCNAEHRGYDYWGQGTQVTVSS", "polyreactivity (PSR sort gate)": "low polyreactivity"},
      {"sequence": "QVQLVESGVGLVQAVGSLRLSSPTSGIIFRYYSMVWYRHAPGKESEYVAVITRRGGGTYYAYSVKGRFTISRDNAKNTVYFEMNSLKPEDTAVYYCAKDFTGHYPKGFDYWGQGTQVTVSS", "polyreactivity (PSR sort gate)": "low polyreactivity"},
      {"sequence": "QVQLVESGVGLVQSGGSLRLSCAASGFIFRWYAKGWYRQAPGKERELVAAISGGGSSTYYADSVKGRFTISRDNEKNTVYLQMNSLKPEDNAVYYCAAYNTYLGYPYYYWGQGTQVTVSS", "polyreactivity (PSR sort gate)": "high polyreactivity"},
      {"sequence": "QVQLVESGVVLVEAGGSLRLSCAASGRILSVYAMGWYRQAPRKERELVAAIRRGVGSTYYADSVKGRFTISRDNAKNTVYLQMNSLKPEDTADYYCAPYSYHNRIRYDSWGQGTQVTVSS", "polyreactivity (PSR sort gate)": "high polyreactivity"},
      {"sequence": "QVQLVESGVVLVQAGGSLRLSCAASGSTFVRYAMGWYRQAPGKERELVAANSRSGGRTYYADSVKGRFTISRDNAKHTVYLQMNSLKPEDTAVYYCYPYYIASTFDYWGQGTQVTVSS", "polyreactivity (PSR sort gate)": "high polyreactivity"},
      {"sequence": "QVQLVESLGGLVQAGASLRLSCAASARTFVIYSMGSYREAPGKERELVAAITWNGETTYYADSVKGRFTISRDNAKNTVYLQMNSLKPEDTAVYYCAAETRSEYHYWGQGTQVTVSS", "polyreactivity (PSR sort gate)": "high polyreactivity"},
      {"sequence": "QVQLVESLGGLVQAGGSLRLSCAASGRTFPGYAMGWYRQAPGKERELVAAISYTGTRTYYADSVKGRFTISRDNAKNTVYLQMNSLKPEDTAVYFCAAGVQRVSGSYGYWGQGTQVTVSS", "polyreactivity (PSR sort gate)": "high polyreactivity"},
      {"sequence": "QVQLVESLGGLVQAGGSLRLSSAASGSIFRRYAMGWYREAPGKERELVAAITSGDTTKYADSLKGRFTISRDNAKNNVYLHMNSLKPEDTAVYYCNKKGWPRFVHGFLRRDDYWGQGTQVTLSS", "polyreactivity (PSR sort gate)": "low polyreactivity"},
      {"sequence": "QVQLVESRAGLVQAGGSLRLSCAASGSTRNRNVMGWYRPAPGKERELVAVITYGVGSTYYADSVKGRFTISRDNAKNTVYLQMNSLKPEDTAVYYCNKDPLVFDYWAQGTQVTVSS", "polyreactivity (PSR sort gate)": "low polyreactivity"},
      {"sequence": "QVQLVESRGCLVQAGGSLRLSCAASGRIFYYYDMGWYRQAPGKERELVAAITYSDSSTYADSVKRRFTISRDNAKNTVYLQMNSLKPEDTAVYYCAADYVYPGVRLEMDYWGQGTQVTVSS", "polyreactivity (PSR sort gate)": "low polyreactivity"},
      {"sequence": "QVQLVESRGCLVQAGGSLRLSCAASGSTFYPYAMGWYRQAPGKERELVAGITVIDGSTYYADSVKGRFTISRDNAKNTVYLQMNSLKPEDTAVYYCAFDAPNQVQEYGYWGQGTQVTVSS", "polyreactivity (PSR sort gate)": "low polyreactivity"},
      {"sequence": "QVQLVESRGFLVQAGGSLRLSCAAYGSSFFTYAMGWYRQAPRKERELVAGINWSGGSTYADSVKGRFTMSRDNAKNTVYLQMNSLKPEDTAVYFCAAKYYSERSRYHYWGQGTQVTVSS", "polyreactivity (PSR sort gate)": "low polyreactivity"},
      {"sequence": "QVQLVESRGGIVQAGGSLRLSCAASGRIFQYYAKGWYRQAPGKEWELVAAIISSGGRTYYADSVKGRFTISRDNAKKTVYVQMNSLKPEDTAVYYCNAVLSTRGMDFWGQGTQVTVSS", "polyreactivity (PSR sort gate)": "high polyreactivity"},
      {"sequence": "QVQLVESRGGLVQAGGSLPLSCAPSGRIFVRYAMGWYRQAPGKERELVAAISKSGGTTYYADSVKGRFTISRDNAKNTVYLQMNSLKPEDTAVYYCYALVRRRPGYIRYDYWGQGSQVTVSS", "polyreactivity (PSR sort gate)": "low polyreactivity"},
      {"sequence": "QVQLVESRGGLVQAGGSLRLRCAASGRIIIAYMAWYRQAPGKERELVAAIDSGASTYYADSVKGRFTISRDNAKNNVYLQMNSLIAEDTAVYYCASDVVYDYGGMDYWGQGTQVTVSS", "polyreactivity (PSR sort gate)": "low polyreactivity"},
      {"sequence": "QVQLVESRGGLVQAGGSLRLSCAASGFIFKTNAMGWYRQAPVKERELVAAISNSDGSTYYADSVKGRFTISRDNAKNTVYLQMNSLKPEDTAVYYCAADRTDFWPYDYWGQGTQVTVSS", "polyreactivity (PSR sort gate)": "low polyreactivity"},
      {"sequence": "QVQLVESRGGLVQAGGSLRLSCAASGFILSWYAMGWYRQARGKERELVAAISTSGDSTYYADSVKGRFTISRDNAKNTVYVQMNRLKPEDTAVYYCAAVKVSAGTSRGYYYWGPGTQVTVSS", "polyreactivity (PSR sort gate)": "high polyreactivity"},
      {"sequence": "QVQLVESRGGLVQAGGSLRLSCAASGFTFERYTMGWYRQAPGKERELVAGINYSGGSTYYADSVKGRFTISRDNAKNTVYLQMNSLKPEDTAVYYCAKDFPYSRYRRRYYYWGQGTQVTVSS", "polyreactivity (PSR sort gate)": "high polyreactivity"},
      {"sequence": "QVQLVESRGGLVQAGGSLRLSCAASGFTFRLYAMGWSRQAPGKERELVAALTGRGGNTYYADSVMGRFTISRDNAKNTVYLQRNSLNPEDTAVYYCNRYTQWVGYDYWGQGTQVTVSS", "polyreactivity (PSR sort gate)": "high polyreactivity"},
      {"sequence": "QVQLVESRGGLVQAGGSLRLSCAASGFTFSGNARGWYRQAPGKERECVAAISNRSGRTYYADSVKGRFTISRYNAKNTVYLQMNSLKPEDTAVYYCAAESIYTWGIRGDYWGHGTQVTVSS", "polyreactivity (PSR sort gate)": "high polyreactivity"},
      {"sequence": "QVQLVESRGGLVQAGGSLRLSCAASGITFRYYAMGWYRQEPGKERELVAAINRGGDSTYYADSVKGRFTISRDIAKNTVYLQMNSLKPVDTAVYYCAASSSNKEYDYWGLGTQVTVSS", "polyreactivity (PSR sort gate)": "high polyreactivity"},
      {"sequence": "QVQLVESRGGLVQAGGSLRLSCAASGLIFLGYAMGWYRQAPGKERELVASIRTGGSTSYADSVKGRFTISRDNAKNTVYLQMNSLKPEDTAVYYCAADRGRPNLPGDYWGQGTQVTVSS", "polyreactivity (PSR sort gate)": "low polyreactivity"},
      {"sequence": "QVQLVESRGGLVQAGGSLRLSCAASGNTFQPYAMGWYRQAPGKERELVAAITWSGDTTYYADSVKARFTISRDNAKNTVYLQMNSLKPEDTAVYYCYPYFWYPDGYTYDYWGQGTQVTVSS", "polyreactivity (PSR sort gate)": "high polyreactivity"},
      {"sequence": "QVQLVESRGGLVQAGGSLRLSCAASGRIFAWNAMGWSRQAPGKERELVAVITSGGNTNYADSVTGRFTISRDNAKNTVYLQLNSLKPEDTAVYYCPKIGYAKRTRFWSHYDYWGQGTQVTVSS", "polyreactivity (PSR sort gate)": "high polyreactivity"},
      {"sequence": "QVQLVESRGGLVQAGGSLRLSCAASGRIFSKYAMGWYRQAPGKERELVAGITIAGRTKYADSVKGRFTISRDNAKNTVYLQMNSQKPEDTAVYYCAARAQATGGYGYWGQGTQVTVSS", "polyreactivity (PSR sort gate)": "high polyreactivity"},
      {"sequence": "QVQLVESRGGLVQAGGSLRLSCAASGRIIGYNAMGCYRQAPGKERELVAAINSDGSKNYADSVKGRFTISRDNAKNTVYLQMNSLKPEDTAVYYSIKELYPVGDYEYWGQGSQVTVSS", "polyreactivity (PSR sort gate)": "low polyreactivity"},
      {"sequence": "QVQLVESRGGLVQAGGSLRLSCAASGRILDLNSMGWYRQAPGKEREFVAAISYSGGRTYYADSVKGRFTISRDNAKNTVYLQMNSLKPEDTAVYYCATDDVWKDGYWGQGTQVTVSS", "polyreactivity (PSR sort gate)": "low polyreactivity"},
      {"sequence": "QVQLVESRGGLVQAGGSLRLSCAASGRTFGGYAMGWYRQAPGKERELVAAISTRGGTTYYADSVKGRFTISRDNAKNTVYLQMNSLKPEDTAVYYCAAVYLYYYNRYYYWGQGSQVTVSS", "polyreactivity (PSR sort gate)": "high polyreactivity"},
      {"sequence": "QVQLVESRGGLVQAGGSLRLSCAASGRTFQYYAKGWYRQERGKVRELVAAISGSTSRTYYADSVKGRFTISRDNAKNTVYLQMNSLKPEDTAVSYCAAALYRLYITSYYYWGPGTQVTVSS", "polyreactivity (PSR sort gate)": "high polyreactivity"},
      {"sequence": "QVQLVESRGGLVQAGGSLRLSCAASGRTFRSYVMGWYRQAPGKERELVAAITTSGGSTYYADSVKGRFTISRDTAKNTVYLQMNSLKPEETAVYYCAAEYYTYTGHYDSWYGDDYWGQGTQVTVSS", "polyreactivity (PSR sort gate)": "high polyreactivity"},
      {"sequence": "QVQLVESRGGLVQAGGSLRLSCAASGRTFWYYAMGWYRQAPGKELELVATITGSGGTTYYADSVKGRFTISRDNAKNTVYLQMNSLKPEDTAVYYCAKEQHWYIYGPAEVDYWGQGTQVTVSS", "polyreactivity (PSR sort gate)": "high polyreactivity"},
      {"sequence": "QVQLVESRGGLVQAGGSLRLSCAASGRTLKYNVMGWYRQAPGKERELVASITSRGGSTRYADSVKGRFTISRDNAKNTVYLQMNSLKPEDTAVYYCAARYTTARSSYDYWGQGTQVTVSS", "polyreactivity (PSR sort gate)": "high polyreactivity"},
      {"sequence": "QVQLVESRGGLVQAGGSLRLSCAASGSIFAIYTMGWYRQAPGKERELVAAITGNGGRTYYADSVKGRFTISRDNAKNTVYLQMNSLKPEDTAVYYCAVVGYHRDYDYWGQGTQVTVSS", "polyreactivity (PSR sort gate)": "low polyreactivity"},
      {"sequence": "QVQLVESRGGLVQAGGSLRLSCAASGSIFDVNAMGWYRQAPGKERELVAAISQRGTRTYYADSVKGRFTISRDNAKNTVYLQMNSLKPEDTAVYYCNRGGWREYDSWGQGTQVTVSS", "polyreactivity (PSR sort gate)": "high polyreactivity"},
      {"sequence": "QVQLVESRGGLVQAGGSLRLSCAASGSIFGWYAMGWYRPAPGKERELVAAINWSGGRTYYADSVKGRFTISRDNAKNTVYLQMNRLKPEDTAVYYCNKVVPGYSAPKYDYWGQGTQVTVSS", "polyreactivity (PSR sort gate)": "high polyreactivity"},
      {"sequence": "QVQLVESRGGLVQAGGSLRLSCAASGSIFNYNAMGCYRQAPGKEREFVAAINQGGTSTYYADSVKGRFTISRDNANHTVYLQMNSLKPEDTAVYYCAALITVYRGSYEYCGQGTQVTVSS", "polyreactivity (PSR sort gate)": "low polyreactivity"},
      {"sequence": "QVQLVESRGGLVQAGGSLRLSCAASGSIFVWNAKGWYRQAPGKERELVAAINVRSASTFYADSVKGRFTISRDIAKNTVYLQMNSLKPEDTAVYYCATSYTKQGFRYYYWGQGTQVTVSS", "polyreactivity (PSR sort gate)": "high polyreactivity"}
    ]}
  ]
}
